Values quoted from earlier work, collected in paper PMC7550652.

Target: Calmodulin (Homo sapiens) (UniProt P0DP23)

Kd: 0.16 nM
Substance: ERα (from UniProt P03372)
